Blank lines part the entries; values can stand above or below the sequence they belong to.
Legend:
HLA-A*26:01 [1] = assay: IEDB peptide-MHC binding, purified MHC/competitive/fluorescence; filed as Kd, often an IC50 or EC50 that approximates it; ≥ and ≤ were set here for values at or beyond the usual limits of such assays; details: source organism: Escherichia coli O139:H28 str. E24377A
HLA-C*14:02 = assay: IEDB peptide-MHC binding, purified MHC/direct/fluorescence; filed as Kd, often an IC50 or EC50 that approximates it; ≥ and ≤ were set here for values at or beyond the usual limits of such assays
HLA-A*02:01 [2] = assay: IEDB peptide-MHC binding, purified MHC/competitive/fluorescence; ≥ and ≤ were set here for values at or beyond the usual limits of such assays
HLA-A*11:01 [3] = assay: as above
HLA-A*03:01 [4] = assay: as above
HLA-B*44:02 = assay: IEDB peptide-MHC binding, purified MHC/direct/fluorescence; filed as Kd, often an IC50 or EC50 that approximates it; ≥ and ≤ were set here for values at or beyond the usual limits of such assays
HLA-A*69:01 = assay: as above
HLA-A*02:01 [5] = assay: as above
HLA-B*35:01 = assay: as above
HLA-B*15:01 [6] = assay: as above
HLA-B*08:01 [7] = assay: as above
HLA-A*11:01 [8] = assay: as above
HLA-A*01:01 = assay: as above
HLA-A*31:01 = assay: as above
HLA-A*03:01 [9] = assay: as above
HLA-B*58:01 = assay: as above
HLA-B*07:02 = assay: as above
HLA-B*40:01 = assay: as above
HLA-B*27:05 = assay: as above
HLA-A*26:01 [10] = assay: as above
HLA-A*02:06 = assay: IEDB peptide-MHC binding, purified MHC/competitive/radioactivity; filed as Kd, often an IC50 or EC50 that approximates it; ≥ and ≤ were set here for values at or beyond the usual limits of such assays
HLA-A*02:01 [11] = assay: as above
HLA-A*02:17 = assay: as above
HLA-A*02:03 = assay: as above
HLA-B*51:01 = assay: as above; details: source organism: Dengue virus 3 Martinique/1243/1999
HLA-A*68:02 = assay: as above
HLA-A*26:01 [12] = assay: as above; details: source organism: Dengue virus 3 Martinique/1243/1999
HLA-A*24:02 = assay: IEDB peptide-MHC binding, purified MHC/competitive/fluorescence; ≥ and ≤ were set here for values at or beyond the usual limits of such assays; details: source organism: Zaire ebolavirus
HLA-A*32:01 = assay: IEDB peptide-MHC binding, purified MHC/competitive/radioactivity; filed as Kd, often an IC50 or EC50 that approximates it; ≥ and ≤ were set here for values at or beyond the usual limits of such assays; details: source organism: Vaccinia virus WR
HLA-B*15:03 = assay: as above; details: source organism: Vaccinia virus WR
HLA-B*15:01 [13] = assay: as above; details: source organism: Vaccinia virus WR
HLA-B*08:01 [14] = assay: as above; details: source organism: Vaccinia virus WR
HLA-A*30:01 = assay: as above; details: source organism: Vaccinia virus WR
HLA-A*24:03 = assay: IEDB peptide-MHC binding, purified MHC/direct/fluorescence; filed as Kd, often an IC50 or EC50 that approximates it; ≥ and ≤ were set here for values at or beyond the usual limits of such assays; details: source organism: Pseudomonas aeruginosa
HLA-A*02:02 = assay: IEDB peptide-MHC binding, purified MHC/competitive/radioactivity; filed as Kd, often an IC50 or EC50 that approximates it; ≥ and ≤ were set here for values at or beyond the usual limits of such assays; details: source organism: Vaccinia virus WR
HLA-A*02:01 [15] = assay: IEDB peptide-MHC binding, purified MHC/competitive/fluorescence; filed as Kd, often an IC50 or EC50 that approximates it; ≥ and ≤ were set here for values at or beyond the usual limits of such assays; details: source organism: Cowpox virus
HLA-A*02:12 = assay: as above; details: source organism: Cowpox virus
[16] = source organism: Zaire ebolavirus
[17] = source organism: Vibrio vulnificus
[18] = source organism: Dengue virus 1 Brazil/97-11/1997
[19] = source organism: Dengue virus 1 Singapore/S275/1990
[20] = source organism: Dengue virus 3 Martinique/1243/1999
[21] = source organism: Dengue virus 3 China/80-2/1980
[22] = source organism: Vaccinia virus
[23] = source organism: Dengue virus 2 Jamaica/1409/1983
[24] = source organism: Pseudomonas aeruginosa
[25] = source organism: Vaccinia virus WR
[26] = source organism: Dengue virus 2 Peru/IQT2913/1996
[27] = source organism: Dengue virus 2 Thailand/NGS-C/1944
[28] = source organism: Giardia lamblia ATCC 50803

Kd (HLA-A*26:01 [1]): ≥ 20000 nM
Kd (HLA-C*14:02; source organism: Escherichia coli O139:H28 str. E24377A): 1100 nM
Sequence: ACPDNLLRL

Sequence: ATAHGSTLA
IC50 (HLA-A*02:01 [2]; [16]): 54300 nM
IC50 (HLA-A*11:01 [3]; [16]): 43100 nM

Sequence: AVLYYHMMK
IC50 (HLA-A*02:01 [2]; [16]): ≥ 311000 nM
IC50 (HLA-A*11:01 [3]; [16]): 288 nM
IC50 (HLA-A*03:01 [4]; [16]): 1970 nM

Sequence: DFPIFNQRY
Kd (HLA-B*44:02; [17]): ≥ 20000 nM
Kd (HLA-A*69:01; [17]): ≥ 20000 nM
Kd (HLA-A*02:01 [5]; [17]): ≥ 20000 nM
Kd (HLA-B*35:01; [17]): 118 nM
Kd (HLA-B*15:01 [6]; [17]): ≥ 20000 nM
Kd (HLA-B*08:01 [7]; [17]): ≥ 20000 nM
Kd (HLA-A*11:01 [8]; [17]): ≥ 20000 nM
Kd (HLA-A*01:01; [17]): ≥ 20000 nM
Kd (HLA-A*31:01; [17]): ≥ 20000 nM
Kd (HLA-A*03:01 [9]; [17]): ≥ 20000 nM
Kd (HLA-B*58:01; [17]): ≥ 20000 nM
Kd (HLA-B*07:02; [17]): ≥ 20000 nM
Kd (HLA-B*40:01; [17]): ≥ 20000 nM
Kd (HLA-B*27:05; [17]): ≥ 20000 nM
Kd (HLA-A*26:01 [10]; [17]): 3830 nM

Sequence: FMTATPPGSV
Kd (HLA-A*02:06; [18]): 671 nM
Kd (HLA-A*02:01 [11]; [19]): 72.8 nM
Kd (HLA-A*02:17; [19]): 3100 nM
Kd (HLA-A*02:03; [18]): 1.67 nM

Sequence: FTMGVLCLAI
Kd (HLA-A*02:06; [20]): 5.39 nM
Kd (HLA-B*51:01): 8620 nM
Kd (HLA-A*68:02; [20]): 11.1 nM
Kd (HLA-A*02:17; [21]): 132 nM
Kd (HLA-A*02:03; [20]): 9.25 nM
Kd (HLA-A*26:01 [12]): 1650 nM

Sequence: GTSNRTPTV
IC50 (HLA-A*02:01 [2]; [16]): 1300 nM
IC50 (HLA-A*11:01 [3]; [16]): ≥ 128000 nM
IC50 (HLA-A*03:01 [4]; [16]): 57200 nM

Sequence: IVLEFFMMV
Kd (HLA-A*02:06; [20]): 31.7 nM
Kd (HLA-A*68:02; [20]): 558 nM
Kd (HLA-A*02:17; [21]): 131 nM

Sequence: IYIEGLMHN
IC50 (HLA-A*24:02): 2630 nM
IC50 (HLA-A*11:01 [3]; [16]): 36100 nM
IC50 (HLA-A*03:01 [4]; [16]): ≥ 211000 nM

IC50 (HLA-A*11:01 [3]; source organism: Homo sapiens): 32 nM
IC50 (HLA-A*03:01 [4]; source organism: Homo sapiens): 415 nM
Sequence: KIGDFGLATVK

Sequence: KMLMTGTLAV
Kd (HLA-A*02:06; [18]): 47.4 nM
Kd (HLA-A*02:01 [11]; [19]): 6.46 nM
Kd (HLA-A*02:17; [19]): 444 nM
Kd (HLA-A*02:03; [18]): 10 nM

Sequence: KMNAKAATL
Kd (HLA-C*14:02; source organism: Mycobacterium tuberculosis variant bovis BCG str. Pasteur 1173P2): 146 nM

Sequence: LLLQKYPPP
IC50 (HLA-A*02:01 [2]; [22]): 34100 nM
IC50 (HLA-A*03:01 [4]; [22]): ≥ 416000 nM

Sequence: LLTGGAMLFL
Kd (HLA-A*02:01 [11]; [21]): 47.4 nM
Kd (HLA-A*02:17; [21]): 347 nM

Sequence: LLVISGVFPV
Kd (HLA-A*02:06; [23]): 0.72 nM
Kd (HLA-A*02:01 [11]; [23]): 0.279 nM
Kd (HLA-A*02:17; [23]): 2.75 nM
Kd (HLA-A*02:03; [23]): 17 nM

Sequence: LMFKHLLHP
Kd (HLA-A*32:01): 11300 nM
Kd (HLA-B*15:03): 25.9 nM
Kd (HLA-B*15:01 [13]): 103 nM
Kd (HLA-B*08:01 [14]): 1.04 nM
Kd (HLA-A*30:01): 504 nM

Kd (HLA-A*69:01; [24]): ≥ 20000 nM
Kd (HLA-A*02:01 [5]; [24]): ≥ 20000 nM
Kd (HLA-B*35:01; [24]): 88 nM
Kd (HLA-B*15:01 [6]; [24]): ≥ 20000 nM
Kd (HLA-B*08:01 [7]; [24]): 189 nM
Kd (HLA-A*11:01 [8]; [24]): ≥ 20000 nM
Kd (HLA-A*01:01; [24]): ≥ 20000 nM
Kd (HLA-A*31:01; [24]): ≥ 20000 nM
Kd (HLA-A*03:01 [9]; [24]): ≥ 20000 nM
Kd (HLA-A*24:03): ≥ 20000 nM
Kd (HLA-B*58:01; [24]): ≥ 20000 nM
Kd (HLA-B*07:02; [24]): 28.3 nM
Kd (HLA-B*40:01; [24]): ≥ 20000 nM
Kd (HLA-B*27:05; [24]): ≥ 20000 nM
Kd (HLA-A*26:01 [10]; [24]): ≥ 20000 nM
Sequence: LPQTRWQAV

Sequence: LQISRVNDL
Kd (HLA-A*02:06; [25]): 229 nM
Kd (HLA-A*02:02): 89.8 nM
Kd (HLA-B*15:03): 34.4 nM
Kd (HLA-A*02:03; [25]): 11.5 nM

Sequence: LTIACRVSL
Kd (HLA-A*32:01): 95.8 nM
Kd (HLA-B*15:03): 599 nM
Kd (HLA-B*15:01 [13]): 75.8 nM
Kd (HLA-B*08:01 [14]): 731 nM
Kd (HLA-A*30:01): 475 nM

Sequence: LVISGLFPV
Kd (HLA-A*02:06; [26]): 0.36 nM
Kd (HLA-A*02:01 [11]; [27]): 2.93 nM
Kd (HLA-A*68:02; [26]): 1.23 nM
Kd (HLA-A*02:17; [27]): 2.17 nM
Kd (HLA-A*02:03; [26]): 3.62 nM

Sequence: NMNNDSYYF
Kd (HLA-A*02:01 [15]): 11.3 nM
Kd (HLA-A*02:12): 76.5 nM

Sequence: NQVCIDILR
IC50 (HLA-A*11:01 [3]; [22]): ≥ 205000 nM

Sequence: QHTRRVSVL
Kd (HLA-B*44:02; [28]): ≥ 20000 nM
Kd (HLA-A*69:01; [28]): ≥ 20000 nM
Kd (HLA-A*02:01 [5]; [28]): 10100 nM
Kd (HLA-B*35:01; [28]): 1300 nM
Kd (HLA-B*15:01 [6]; [28]): ≥ 20000 nM
Kd (HLA-B*08:01 [7]; [28]): 534 nM
Kd (HLA-A*11:01 [8]; [28]): ≥ 20000 nM
Kd (HLA-A*01:01; [28]): ≥ 20000 nM
Kd (HLA-A*31:01; [28]): ≥ 10000 nM
Kd (HLA-A*03:01 [9]; [28]): ≥ 20000 nM
Kd (HLA-B*07:02; [28]): ≥ 20000 nM
Kd (HLA-A*26:01 [10]; [28]): 5180 nM

Sequence: RMFGSKPTF
Kd (HLA-A*32:01): 9800 nM
Kd (HLA-B*15:03): 0.206 nM
Kd (HLA-B*15:01 [13]): 7510 nM
Kd (HLA-B*08:01 [14]): 7870 nM
Kd (HLA-A*30:01): 6250 nM

Sequence: SQTIELIAF
Kd (HLA-B*15:03): 0.206 nM

Sequence: VKNEVNSFK
IC50 (HLA-A*11:01 [3]; [16]): 39100 nM
IC50 (HLA-A*03:01 [4]; [16]): 47100 nM

Sequence: VLLLTIGLSL
Kd (HLA-A*02:01 [11]; [19]): 5.24 nM
Kd (HLA-A*02:17; [19]): 3910 nM

Sequence: VMSQEDNHF
Kd (HLA-B*15:03): 102 nM
Kd (HLA-B*15:01 [13]): 192 nM

Kd (HLA-A*02:01 [5]; [24]): ≥ 20000 nM
Kd (HLA-B*35:01; [24]): 6120 nM
Kd (HLA-B*15:01 [6]; [24]): 144 nM
Kd (HLA-B*08:01 [7]; [24]): ≥ 20000 nM
Kd (HLA-A*11:01 [8]; [24]): ≥ 20000 nM
Kd (HLA-A*01:01; [24]): ≥ 20000 nM
Kd (HLA-A*31:01; [24]): ≥ 20000 nM
Kd (HLA-A*03:01 [9]; [24]): ≥ 20000 nM
Kd (HLA-A*24:03): ≥ 20000 nM
Kd (HLA-B*58:01; [24]): ≥ 20000 nM
Kd (HLA-B*07:02; [24]): 251 nM
Kd (HLA-B*40:01; [24]): ≥ 20000 nM
Kd (HLA-B*27:05; [24]): ≥ 20000 nM
Kd (HLA-A*26:01 [10]; [24]): ≥ 20000 nM
Sequence: VVAVGGLAI

Sequence: YMSSEPIIF
Kd (HLA-B*15:03): 0.304 nM

Reference: the Immune Epitope Database (IEDB)
